In publication PMC3435532 one finds binding signal (fold vs non-acetylated wild type) data, which are given here for one substance.

The series concerns FLI1-CTD K4bR. Put plainly: EMSA. The settings on record: non-acetylated baseline; normalized to Coomassie; Non-radioactive EMSA: 1 ug protein, 500 fmol biotinylated dsDNA, binding buffer per Uren et al. 2004 (not given); 6% gel in 0.5x TBE; protein stock 20 mM …. Background: A gel shift assay detects complexes by their altered migration in electrophoresis.

Take “ets-binding site oligonucleotide (wild type)”: the binding signal (fold vs non-acetylated wild type) is 1.
